Data taken from CN111320688A.

Experiments:
[1] = molecular target: 黄病毒属中的登革病毒、寨卡病毒、西尼罗河病毒和黄热病毒的E蛋白
[2] = molecular target: 登革病毒1-4型、西尼罗河病毒和黄热病毒 (病毒颗粒表面E蛋白); experiment: cell-based or functional assay

B1: TIB12抗体 (antibody, V domains shown)
VH: EVQLLESGGGLVQPGGSLRLSCAASGFTFSSQVMSWVRQAPGRGLEWVSVIHTGGSSTYYADSVKGRFTISRDNSKNTVFLHMNSLRVEDTALYYCAKGSAYGDYVEY
VL: QSVLTQPPSVSGAPGQRVTISCTGSSSNIGAGYDVHWYQQPPGTAPKLLIYGNNNRPSGVPDRFSGSKSGTSASLAITGLQAEDEADYYCQSYDSSLSGGV
In the case of B1, the Kd [1] is reported as 0.13 to 0.85 nM and the IC50 (中和能力; Vero细胞感染, 流式检测) [2] is reported as 0.04 to 1.31 µg/mL.
